According to patent US20090276160A1 (published 2009):

Tests used:
Assay in all cases: cell-based or functional assay
[1] = molecular target: T1, Hepatocyte growth factor activator (HGFA), activated 34 kDa short form, residues Val373 to Ser655 with a … (human, UniProt Q04756 408-655, single N-acetylglucosamine attached to Asn74 (chymotrypsinogen numbering))
T1 sequence 1: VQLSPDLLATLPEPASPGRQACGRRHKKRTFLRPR
T1 sequence 2: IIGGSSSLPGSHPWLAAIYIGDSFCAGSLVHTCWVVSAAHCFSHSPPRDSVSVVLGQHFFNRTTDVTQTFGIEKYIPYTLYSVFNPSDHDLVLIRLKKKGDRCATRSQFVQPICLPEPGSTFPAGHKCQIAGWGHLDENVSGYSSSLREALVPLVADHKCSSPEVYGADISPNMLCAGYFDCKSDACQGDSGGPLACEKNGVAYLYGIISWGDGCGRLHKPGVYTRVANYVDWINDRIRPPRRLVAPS

[2] = molecular target: Factor XIa (Haematologic Technologies) (human, UniProt P03951 19-625)
[3] = molecular target: T2, Factor XIIa (American Diagnostica) (human, UniProt P00748 20-615, limits assumed)
T2 sequence (looked up): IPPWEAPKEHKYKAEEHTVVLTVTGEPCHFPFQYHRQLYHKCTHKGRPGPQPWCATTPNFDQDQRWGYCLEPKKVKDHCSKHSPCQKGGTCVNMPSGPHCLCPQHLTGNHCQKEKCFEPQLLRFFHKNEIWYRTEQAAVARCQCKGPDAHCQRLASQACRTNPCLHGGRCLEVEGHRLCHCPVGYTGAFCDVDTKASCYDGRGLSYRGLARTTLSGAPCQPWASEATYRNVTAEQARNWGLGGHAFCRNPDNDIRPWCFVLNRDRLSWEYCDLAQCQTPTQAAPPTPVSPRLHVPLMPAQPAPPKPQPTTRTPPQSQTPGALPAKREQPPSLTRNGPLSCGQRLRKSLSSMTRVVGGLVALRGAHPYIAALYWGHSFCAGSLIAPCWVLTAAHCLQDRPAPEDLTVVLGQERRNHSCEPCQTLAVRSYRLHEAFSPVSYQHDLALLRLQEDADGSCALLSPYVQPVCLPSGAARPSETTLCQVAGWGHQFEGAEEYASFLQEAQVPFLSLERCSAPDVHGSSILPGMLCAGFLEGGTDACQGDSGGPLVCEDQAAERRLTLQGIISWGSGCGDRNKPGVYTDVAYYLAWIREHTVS

[4] = molecular target: Thrombin (Haematologic Technologies) (human, UniProt P00734 328-622)
[5] = molecular target: Tissue factor/factor VIIa complex: human tissue factor (residues 1-219) with human recombinant FVIIa (human, UniProt P13726 33-251; P08709 61-466)
Tissue factor/factor VIIa complex: human tissue factor (residues 1-219) with human recombinant FVIIa, sequence (P13726 33-251 limits assumed, chain 1 of 2): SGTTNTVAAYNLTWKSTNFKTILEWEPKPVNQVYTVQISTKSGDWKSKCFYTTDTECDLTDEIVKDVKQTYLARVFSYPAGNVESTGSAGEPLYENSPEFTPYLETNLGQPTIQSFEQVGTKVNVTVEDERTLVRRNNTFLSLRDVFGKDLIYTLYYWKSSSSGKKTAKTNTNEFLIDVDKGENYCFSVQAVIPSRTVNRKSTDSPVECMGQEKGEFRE
Tissue factor/factor VIIa complex: human tissue factor (residues 1-219) with human recombinant FVIIa, sequence (P08709 61-466 limits assumed, chain 2 of 2): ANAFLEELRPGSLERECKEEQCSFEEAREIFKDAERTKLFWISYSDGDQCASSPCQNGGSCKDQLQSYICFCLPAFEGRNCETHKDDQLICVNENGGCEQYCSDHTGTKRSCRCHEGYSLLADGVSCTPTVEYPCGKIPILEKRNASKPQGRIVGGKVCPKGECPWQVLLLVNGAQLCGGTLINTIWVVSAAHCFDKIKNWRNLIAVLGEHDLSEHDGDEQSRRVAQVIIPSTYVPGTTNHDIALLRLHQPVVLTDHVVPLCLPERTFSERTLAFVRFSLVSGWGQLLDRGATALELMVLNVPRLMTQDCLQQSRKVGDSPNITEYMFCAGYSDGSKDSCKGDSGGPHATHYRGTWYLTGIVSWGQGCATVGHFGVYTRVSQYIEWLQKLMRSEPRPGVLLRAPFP

[6] = molecular target: Factor Xa (Haematologic Technologies) (human, UniProt P00742 41-179; P00742 235-488, limits assumed)
Factor Xa (Haematologic Technologies), sequence (P00742 41-179 limits assumed, chain 1 of 2): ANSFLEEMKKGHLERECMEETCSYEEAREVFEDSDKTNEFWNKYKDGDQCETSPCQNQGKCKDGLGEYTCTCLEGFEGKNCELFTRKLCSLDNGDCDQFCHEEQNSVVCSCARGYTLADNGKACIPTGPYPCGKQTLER
Factor Xa (Haematologic Technologies), sequence (P00742 235-488 limits assumed, chain 2 of 2): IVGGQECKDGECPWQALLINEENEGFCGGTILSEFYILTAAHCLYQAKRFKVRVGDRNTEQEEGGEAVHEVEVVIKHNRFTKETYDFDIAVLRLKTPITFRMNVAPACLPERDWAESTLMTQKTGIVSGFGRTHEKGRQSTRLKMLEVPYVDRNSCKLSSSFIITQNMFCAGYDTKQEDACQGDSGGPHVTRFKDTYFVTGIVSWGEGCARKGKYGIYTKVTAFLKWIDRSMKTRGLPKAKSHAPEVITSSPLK

[7] = molecular target: Activated Protein C (Haematologic Technologies) (human, UniProt P04070 43-197; P04070 212-461)
Activated Protein C (Haematologic Technologies), sequence (P04070 43-197, form in doubt, chain 1 of 2): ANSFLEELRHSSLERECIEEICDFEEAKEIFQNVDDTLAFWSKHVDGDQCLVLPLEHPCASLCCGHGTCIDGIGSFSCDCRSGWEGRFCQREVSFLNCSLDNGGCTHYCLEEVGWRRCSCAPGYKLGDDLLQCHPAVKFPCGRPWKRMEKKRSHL
Activated Protein C (Haematologic Technologies), sequence (P04070 212-461, form in doubt, chain 2 of 2): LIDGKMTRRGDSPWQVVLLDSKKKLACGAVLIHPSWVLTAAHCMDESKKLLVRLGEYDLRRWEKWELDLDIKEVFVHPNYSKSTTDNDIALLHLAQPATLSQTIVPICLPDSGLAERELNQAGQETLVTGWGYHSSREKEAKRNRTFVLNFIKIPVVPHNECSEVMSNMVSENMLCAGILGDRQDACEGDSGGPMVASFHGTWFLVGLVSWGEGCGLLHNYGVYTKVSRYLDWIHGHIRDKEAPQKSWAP

[8] = molecular target: T3, Complement factor C1s (Calbiochem) (human, UniProt P09871 16-688)
T3 sequence (looked up): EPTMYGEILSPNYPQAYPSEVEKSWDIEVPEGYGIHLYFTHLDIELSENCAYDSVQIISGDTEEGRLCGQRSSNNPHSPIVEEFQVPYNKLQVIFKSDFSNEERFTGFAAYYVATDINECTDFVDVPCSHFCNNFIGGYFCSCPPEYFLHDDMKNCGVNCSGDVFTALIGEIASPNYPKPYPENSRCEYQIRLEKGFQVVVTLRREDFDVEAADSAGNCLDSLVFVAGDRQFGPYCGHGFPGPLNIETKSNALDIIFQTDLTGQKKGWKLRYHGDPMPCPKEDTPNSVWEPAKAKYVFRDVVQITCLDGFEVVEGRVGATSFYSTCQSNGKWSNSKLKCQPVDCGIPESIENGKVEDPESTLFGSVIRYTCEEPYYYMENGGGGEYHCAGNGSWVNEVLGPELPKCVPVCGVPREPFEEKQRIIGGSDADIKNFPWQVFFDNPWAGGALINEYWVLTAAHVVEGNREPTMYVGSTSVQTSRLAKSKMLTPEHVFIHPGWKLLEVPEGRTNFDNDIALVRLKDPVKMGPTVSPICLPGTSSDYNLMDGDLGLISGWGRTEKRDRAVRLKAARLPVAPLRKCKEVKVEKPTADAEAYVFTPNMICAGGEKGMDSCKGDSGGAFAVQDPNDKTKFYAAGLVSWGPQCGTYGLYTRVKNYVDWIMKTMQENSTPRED

[9] = molecular target: tPA (Activase, Genentech) (human, UniProt P00750 36-562)
tPA (Activase, Genentech), sequence (P00750 36-562 limits assumed): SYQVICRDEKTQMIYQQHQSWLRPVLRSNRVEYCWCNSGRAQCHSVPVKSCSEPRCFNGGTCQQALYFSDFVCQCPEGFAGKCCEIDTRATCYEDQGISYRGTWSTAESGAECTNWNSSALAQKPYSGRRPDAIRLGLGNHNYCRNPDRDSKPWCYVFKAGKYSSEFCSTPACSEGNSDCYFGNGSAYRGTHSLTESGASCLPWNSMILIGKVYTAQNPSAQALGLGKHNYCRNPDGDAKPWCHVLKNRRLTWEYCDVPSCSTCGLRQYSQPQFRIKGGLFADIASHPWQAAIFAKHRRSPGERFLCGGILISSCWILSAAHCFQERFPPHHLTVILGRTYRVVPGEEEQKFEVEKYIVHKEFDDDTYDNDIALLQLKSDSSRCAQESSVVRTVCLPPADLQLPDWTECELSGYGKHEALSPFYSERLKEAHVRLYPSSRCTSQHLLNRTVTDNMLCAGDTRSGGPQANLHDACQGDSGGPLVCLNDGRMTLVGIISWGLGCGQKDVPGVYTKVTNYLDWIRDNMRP

uPA (Chemicon) = uPA (Chemicon) (human, UniProt P00749 21-431, limits assumed)
[10] = molecular target: T4, Matriptase (residues 615-855) (human, UniProt Q9Y5Y6 615-855)
T4 sequence (looked up): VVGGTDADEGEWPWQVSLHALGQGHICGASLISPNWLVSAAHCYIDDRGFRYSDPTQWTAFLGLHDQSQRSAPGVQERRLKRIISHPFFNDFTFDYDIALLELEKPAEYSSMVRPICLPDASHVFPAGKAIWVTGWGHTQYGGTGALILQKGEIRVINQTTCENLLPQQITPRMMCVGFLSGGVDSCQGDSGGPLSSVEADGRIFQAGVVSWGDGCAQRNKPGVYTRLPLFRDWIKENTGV

Hepsin (residues 45-417) = Hepsin (residues 45-417) (human, UniProt P05981 45-417)
Hepsin (residues 45-417), sequence (P05981 45-417 limits assumed): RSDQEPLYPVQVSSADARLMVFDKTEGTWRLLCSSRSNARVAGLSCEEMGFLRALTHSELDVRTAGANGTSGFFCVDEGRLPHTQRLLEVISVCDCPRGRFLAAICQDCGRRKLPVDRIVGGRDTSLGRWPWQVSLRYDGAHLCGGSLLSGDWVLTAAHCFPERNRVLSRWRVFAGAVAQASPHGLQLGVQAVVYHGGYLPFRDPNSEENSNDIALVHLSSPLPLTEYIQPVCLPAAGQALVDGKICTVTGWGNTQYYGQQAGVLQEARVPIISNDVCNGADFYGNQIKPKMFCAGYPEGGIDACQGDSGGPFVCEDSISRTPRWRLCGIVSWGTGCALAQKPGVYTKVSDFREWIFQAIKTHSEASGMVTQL

[11] = molecular target: Bovine trypsin (Worthington) (bovine, UniProt P00760 24-246)
Bovine trypsin (Worthington), sequence (P00760 24-246): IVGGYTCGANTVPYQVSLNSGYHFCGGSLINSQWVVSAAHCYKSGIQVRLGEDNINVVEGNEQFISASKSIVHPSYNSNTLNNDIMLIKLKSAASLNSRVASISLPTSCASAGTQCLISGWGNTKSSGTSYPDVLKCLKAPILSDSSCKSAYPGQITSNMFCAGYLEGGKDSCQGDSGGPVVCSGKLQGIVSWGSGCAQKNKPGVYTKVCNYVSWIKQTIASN

[12] = molecular target: Plasmin (Haematologic Technologies) (human, UniProt P00747 97-810, limits assumed)
Plasmin (Haematologic Technologies), sequence (P00747 97-810 limits assumed): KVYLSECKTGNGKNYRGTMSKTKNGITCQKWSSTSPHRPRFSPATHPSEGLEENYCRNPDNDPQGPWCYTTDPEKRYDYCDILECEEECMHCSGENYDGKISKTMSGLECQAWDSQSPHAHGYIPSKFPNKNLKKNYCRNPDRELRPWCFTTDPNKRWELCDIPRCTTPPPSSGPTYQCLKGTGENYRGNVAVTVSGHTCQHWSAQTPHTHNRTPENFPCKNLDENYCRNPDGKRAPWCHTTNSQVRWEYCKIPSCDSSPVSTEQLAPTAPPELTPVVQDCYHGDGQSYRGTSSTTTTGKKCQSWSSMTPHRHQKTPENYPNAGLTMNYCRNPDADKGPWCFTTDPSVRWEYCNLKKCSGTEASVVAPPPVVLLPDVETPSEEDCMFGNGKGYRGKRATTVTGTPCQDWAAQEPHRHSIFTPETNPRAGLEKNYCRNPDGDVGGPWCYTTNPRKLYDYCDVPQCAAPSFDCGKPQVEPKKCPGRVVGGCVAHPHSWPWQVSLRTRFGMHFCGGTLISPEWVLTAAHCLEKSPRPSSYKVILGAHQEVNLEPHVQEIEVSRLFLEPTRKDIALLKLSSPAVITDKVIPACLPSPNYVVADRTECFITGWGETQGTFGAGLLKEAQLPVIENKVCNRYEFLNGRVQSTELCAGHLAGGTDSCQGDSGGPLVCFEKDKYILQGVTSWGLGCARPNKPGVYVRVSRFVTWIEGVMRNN

[13] = molecular target: Plasma kallikrein (American Diagnostica) (human, UniProt P03952 20-638)
Plasma kallikrein (American Diagnostica), sequence (P03952 20-638 limits assumed): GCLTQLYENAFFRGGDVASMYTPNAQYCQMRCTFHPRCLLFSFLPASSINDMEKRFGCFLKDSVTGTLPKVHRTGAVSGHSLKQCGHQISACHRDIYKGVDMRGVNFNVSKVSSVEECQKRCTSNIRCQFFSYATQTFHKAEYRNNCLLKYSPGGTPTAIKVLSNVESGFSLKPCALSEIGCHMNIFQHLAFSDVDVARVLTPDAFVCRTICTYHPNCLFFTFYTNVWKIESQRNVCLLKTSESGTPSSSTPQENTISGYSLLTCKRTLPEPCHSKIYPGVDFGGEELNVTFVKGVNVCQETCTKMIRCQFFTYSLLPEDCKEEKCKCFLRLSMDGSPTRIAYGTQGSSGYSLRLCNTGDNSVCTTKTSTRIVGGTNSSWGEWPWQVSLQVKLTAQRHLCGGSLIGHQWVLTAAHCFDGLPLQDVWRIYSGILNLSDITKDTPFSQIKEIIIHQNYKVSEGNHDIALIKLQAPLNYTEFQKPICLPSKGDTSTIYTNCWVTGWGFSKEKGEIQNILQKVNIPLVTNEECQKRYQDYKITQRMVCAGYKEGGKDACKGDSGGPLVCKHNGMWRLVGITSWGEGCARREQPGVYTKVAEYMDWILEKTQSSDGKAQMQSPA

Chymotrypsin (Sigma) = Chymotrypsin (Sigma) (human, UniProt P17538 19-263)
Chymotrypsin (Sigma), sequence (P17538 19-263): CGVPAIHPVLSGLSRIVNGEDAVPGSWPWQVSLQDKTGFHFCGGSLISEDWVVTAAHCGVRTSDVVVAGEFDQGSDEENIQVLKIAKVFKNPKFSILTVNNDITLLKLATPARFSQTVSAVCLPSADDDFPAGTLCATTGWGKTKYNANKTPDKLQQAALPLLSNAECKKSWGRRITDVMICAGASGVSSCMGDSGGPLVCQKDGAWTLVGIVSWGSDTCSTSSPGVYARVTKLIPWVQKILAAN

IC50 (nM), inhibition of enzyme activity on chromogenic substrate [1]: 4 nM | IC50 (nM), inhibition of enzyme activity on chromogenic substrate [2]: > 1000 nM | IC50 (nM), inhibition of enzyme activity on chromogenic substrate [3]: > 1000 nM | IC50 (nM), inhibition of enzyme activity on chromogenic substrate [4]: > 1000 nM | IC50 (nM), inhibition of enzyme activity on chromogenic substrate [5]: > 1000 nM | IC50 (nM), inhibition of enzyme activity on chromogenic substrate [6]: > 1000 nM | IC50 (nM), inhibition of enzyme activity on chromogenic substrate [7]: > 1000 nM | IC50 (nM), inhibition of enzyme activity on chromogenic substrate [8]: > 1000 nM | IC50 (nM), inhibition of enzyme activity on chromogenic substrate [9]: > 1000 nM | IC50 (nM), inhibition of enzyme activity on chromogenic substrate (uPA (Chemicon)): > 1000 nM | IC50 (nM), inhibition of enzyme activity on chromogenic substrate [10]: 1.7 nM | IC50 (nM), inhibition of enzyme activity on chromogenic substrate (Hepsin (residues 45-417)): 6.7 nM | IC50 (nM), inhibition of enzyme activity on chromogenic substrate [11]: 0.7 nM | IC50 (nM), inhibition of enzyme activity on chromogenic substrate [12]: 115 nM | IC50 (nM), inhibition of enzyme activity on chromogenic substrate [13]: 21 nM | IC50 (nM), inhibition of enzyme activity on chromogenic substrate (Chymotrypsin (Sigma)): > 1000 nM
B1: First Kunitz domain (KD1) of human HAI-1B, amino acids 246-303 of the precursor, with N-terminal polyhistidine leader (other)
chain: MKHQHQHQHQHQHQMHQTEDYCLASNKVGRCRGSFPRWYYDPTEQICKSFVYGGCLGNKNNYLREEECILACRGV
